Values joined by “and” are separate entries in the source; they are usually repeats but may differ in a detail not shown here. Equal entries are not always repeated.

The results in this text go back to PMC11742489.

This assay has as its target Ca2+/CaM. In words: ITC; Cav1.2-NSCaTE peptide (20-fold molar excess) injected into CaM (~50 uM); 50 mM HEPES, 100 mM KCl, 2 mM MgCl2, pH 7.5, 5 mM CaCl2 (Ca2+-saturating); 20°C by the legend, 25°C by the methods; one-site binding model.

Consider Cav1.2-NSCaTE(51-67) peptide, for which the stoichiometry N was 2 and 1.7.
